B1: Protein KHNYN (Homo sapiens), O15037 (parent)
chain: MPTWGARPASPDRFAVSAEAENKVREQQPHVERIFSVGVSVLPKDCPDNPHIWLQLEGPKENASRAKEYLKGLCSPELQDEIHYPPKLHCIFLGAQGFFLDCLAWSTSAHLVPRAPGSLMISGLTEAFVMAQSRVEELAERLSWDFTPGPSSGASQCTGVLRDFSALLQSPGDAHREALLQLPLAVQEELLSLVQEASSGQGPGALASWEGRSSALLGAQCQGVRAPPSDGRESLDTGSMGPGDCRGARGDTYAVEKEGGKQGGPREMDWGWKELPGEEAWEREVALRPQSVGGGARESAPLKGKALGKEEIALGGGGFCVHREPPGAHGSCHRAAQSRGASLLQRLHNGNASPPRVPSPPPAPEPPWHCGDRGDCGDRGDVGDRGDKQQGMARGRGPQWKRGARGGNLVTGTQRFKEALQDPFTLCLANVPGQPDLRHIVIDGSNVAMVHGLQHYFSSRGIAIAVQYFWDRGHRDITVFVPQWRFSKDAKVRESHFLQKLYSLSLLSLTPSRVMDGKRISSYDDRFMVKLAEETDGIIVSNDQFRDLAEESEKWMAIIRERLLPFTFVGNLFMVPDDPLGRNGPTLDEFLKKPARTQGSSKAQHPSRGFAEHGKQQQGREEEKGSGGIRKTRETERLRRQLLEVFWGQDHKVDFILQREPYCRDINQLSEALLSLNF

Variants of: B1
Conditions: with nedd8_human NEDD8, Q15843
nedd8_human NEDD8, Q15843, sequence (Q15843 whole entry): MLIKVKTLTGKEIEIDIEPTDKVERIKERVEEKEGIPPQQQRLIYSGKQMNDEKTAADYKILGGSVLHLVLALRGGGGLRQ

Effect of a mutation on the interaction, decreasing interaction:
W647A
W647P
R664E
H651F
R659E
K652D

— IntAct's records for PubMed 30659753
